# ± gives the standard deviation of the averaged measurements.
# B1: library; a variant is named by its letters at N, in order (parent)
# chain: GCUGUCACCGAGAAACUGUGAAGUAUAUCUUAAACCUGGGCACUUAAAAGAUAUAUGGAGUUAGUAGUGCAACCUGCUCGGUCUGAUGAGUCCNNNNNNGGACGAAACAGC
# What was measured:
# [1] = variants of: B1; experiment: normalized RNA/DNA level without ligand (relative to sTRSVctl = 100) (log10 (% of sTRSVctl)); HEK293T; ligand: cyclic di-GMP (c-di-GMP-II aptamer); higher = less ribozyme self-cleavage, higher mRNA level; details: reporter: mCherry (pCS4076), ligand present: no
# Method in brief: (§1)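 HEK293T cells were transfected with library plasmids carrying ribozyme switches linked to an mCherry reporter, or an eGFP reporter in some ligand experiments, at 4 µg per well of a 6-well plate, with any ligand added 1 h beforehand. After 72 h, total RNA was extracted with EDTA, reverse-transcribed, amplified, barcoded and sequenced. RNA level was defined as RNA reads over DNA reads, normalized to a spiked-in non-cleaving sequence or to the top-ranked sequences. That value was multiplied by 100 and converted to log10, the top set was 25 sequences, and only sequences with ≥100 DNA reads were retained.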
# [2] = variants of: B1; experiment: normalized RNA/DNA level with ligand (relative to sTRSVctl = 100) (log10 (% of sTRSVctl)); HEK293T; ligand: cyclic di-GMP (c-di-GMP-II aptamer); ligand concentration (+) RNA-Seq: 1 mM; higher = less ribozyme self-cleavage, higher mRNA level; details: reporter: mCherry (pCS4076), ligand present: yes
# Method in brief: as §1
Variant,normalized RNA/DNA level without ligand (log10) [1],normalized RNA/DNA level with ligand (log10) [2]
UCUAUG,1.7 ± 0.034,1.85 ± 0.09
UCUAUU,1.63 ± 0.034,1.78 ± 0.094
UCUAUC,1.698 ± 0.013,1.84 ± 0.086
UCUAUA,1.56 ± 0.067,1.74 ± 0.12
CCUGUG,1.54 ± 0.12,1.76 ± 0.049
CCUGUU,1.67 ± 0.019,1.86 ± 0.084
CCUGUC,1.69 ± 0.019,1.87 ± 0.089
CCUAUC,1.63 ± 0.075,1.79 ± 0.077
CCUAUU,1.56 ± 0.048,1.71 ± 0.097
CCUAUG,1.48 ± 0.038,1.7 ± 0.083
ACUAGU,1.674 ± 0.011,1.8 ± 0.065
ACUAGG,1.52 ± 0.071,1.7 ± 0.066
ACUAGA,1.41 ± 0.066,1.64 ± 0.12
ACUAGC,1.6 ± 0.048,1.77 ± 0.12
UCUACC,1.798 ± 0.0078,1.88 ± 0.12
UCUACG,1.74 ± 0.011,1.89 ± 0.092
UCUACA,1.71 ± 0.025,1.86 ± 0.16
UCUACU,1.696 ± 0.012,1.82 ± 0.097
UCGUAG,1.63 ± 0.059,1.82 ± 0.11
UCGUAU,1.53 ± 0.068,1.76 ± 0.12
UCGUAA,1.44 ± 0.1,1.64 ± 0.15
UCUAGU,1.66 ± 0.054,1.83 ± 0.057
UCUAGC,1.69 ± 0.023,1.88 ± 0.13

Variant,normalized RNA/DNA level without ligand (log10) [1],normalized RNA/DNA level with ligand (log10) [2]
UCUAGG,1.81 ± 0.049,1.88 ± 0.12
UCUAGA,1.74 ± 0.021,1.88 ± 0.15
UCUCUU,1.74 ± 0.039,1.86 ± 0.089
UCUCUA,1.666 ± 0.0017,1.82 ± 0.12
UCUCUC,1.81 ± 0.069,1.9 ± 0.12
UCUCUG,1.718 ± 0.015,1.87 ± 0.14
ACUCUA,1.6 ± 0.046,1.77 ± 0.081
ACUCUG,1.602 ± 0.0083,1.81 ± 0.096
ACUCUC,1.77 ± 0.076,1.86 ± 0.12
CCGUCU,1.6 ± 0.061,1.78 ± 0.12
CCGUCG,1.68 ± 0.0046,1.82 ± 0.13
CCGUCA,1.592 ± 0.009,1.79 ± 0.047
ACUAAC,1.607 ± 0.015,1.76 ± 0.15
GCUAAA,1.46 ± 0.085,1.67 ± 0.11
GCUAAC,1.49 ± 0.023,1.7 ± 0.15
GCUAAG,1.49 ± 0.032,1.71 ± 0.1
UCUCAC,1.78 ± 0.018,1.87 ± 0.066
UCUCAG,1.75 ± 0.073,1.89 ± 0.098
UCUCAU,1.638 ± 0.0046,1.78 ± 0.061
UCUCAA,1.659 ± 0.013,1.83 ± 0.12
ACGGUG,1.6002 ± 0.00028,1.74 ± 0.1
ACGGUC,1.637 ± 0.014,1.77 ± 0.17
CCGUGG,1.53 ± 0.061,1.69 ± 0.14

Variant,normalized RNA/DNA level without ligand (log10) [1],normalized RNA/DNA level with ligand (log10) [2]
CCGUGU,1.66 ± 0.039,1.86 ± 0.095
CCGUGC,1.58 ± 0.036,1.76 ± 0.086
CCGUGA,1.51 ± 0.067,1.7 ± 0.078
GCUGGC,1.57 ± 0.052,1.71 ± 0.14
GCUGGG,1.56 ± 0.029,1.71 ± 0.15
GCGUCU,1.67 ± 0.03,1.83 ± 0.1
GCGUCC,1.63 ± 0.055,1.81 ± 0.047
GCGUCA,1.624 ± 0.0059,1.79 ± 0.15
ACUCGC,1.73 ± 0.027,1.88 ± 0.15
ACUCGG,1.72 ± 0.074,1.76 ± 0.2
ACUCGA,1.52 ± 0.065,1.73 ± 0.11
ACUCGU,1.76 ± 0.043,1.85 ± 0.021
UCGUCC,1.794 ± 0.01,1.9 ± 0.081
UCGUCA,1.644 ± 0.00093,1.82 ± 0.11
UCGUCG,1.74 ± 0.03,1.88 ± 0.085
UCGUCU,1.72 ± 0.043,1.89 ± 0.094
UCUUCU,1.76 ± 0.066,1.84 ± 0.11
UCUUCG,1.79 ± 0.055,1.89 ± 0.12
UCUUCC,1.79 ± 0.059,1.92 ± 0.13
UCUUCA,1.75 ± 0.057,1.8 ± 0.1
CCGGUC,1.622 ± 0.0071,1.83 ± 0.073
UCGUGG,1.738 ± 0.004,1.89 ± 0.11
UCGUGU,1.617 ± 0.0058,1.81 ± 0.1

Variant,normalized RNA/DNA level without ligand (log10) [1],normalized RNA/DNA level with ligand (log10) [2]
UCGUGA,1.47 ± 0.082,1.73 ± 0.09
UCGUGC,1.67 ± 0.017,1.86 ± 0.12
ACUAUG,1.586 ± 0.01,1.75 ± 0.087
ACUAUC,1.622 ± 0.012,1.79 ± 0.067
ACUAUU,1.5 ± 0.047,1.7 ± 0.11
CCUCCA,1.68 ± 0.031,1.83 ± 0.088
GCUUAC,1.53 ± 0.026,1.75 ± 0.075
GCUUAU,1.6 ± 0.017,1.76 ± 0.13
UCUGAG,1.66 ± 0.056,1.78 ± 0.098
UCUGAC,1.677 ± 0.011,1.84 ± 0.12
UCUUAC,1.704 ± 0.017,1.86 ± 0.054
UCUUAU,1.683 ± 0.012,1.85 ± 0.14
UCUUAA,1.64 ± 0.07,1.81 ± 0.044
GCUAGU,1.58 ± 0.069,1.78 ± 0.086
GCUAGC,1.696 ± 0.0018,1.8 ± 0.17
GCUAGG,1.54 ± 0.12,1.7 ± 0.062
UCUCCC,1.81 ± 0.073,1.92 ± 0.14
UCUCCG,1.839 ± 0.0029,1.94 ± 0.099
UCUCCA,1.758 ± 0.012,1.85 ± 0.12
UCUCCU,1.77 ± 0.003,1.91 ± 0.14
GCGGUC,1.29 ± 0.072,1.52 ± 0.09
GCGGUA,1.55 ± 0.046,1.69 ± 0.09
GCGGUG,1.6984 ± 0.00046,1.79 ± 0.13

Variant,normalized RNA/DNA level without ligand (log10) [1],normalized RNA/DNA level with ligand (log10) [2]
ACGUGC,1.59 ± 0.036,1.8 ± 0.065
ACGUAC,1.58 ± 0.053,1.78 ± 0.077
ACGUAG,1.55 ± 0.021,1.72 ± 0.14
ACUUCU,1.707 ± 0.0019,1.84 ± 0.057
ACUUCG,1.66 ± 0.067,1.79 ± 0.069
ACUUCA,1.648 ± 0.014,1.83 ± 0.082
ACUUCC,1.776 ± 0.013,1.89 ± 0.08
ACUUGA,1.49 ± 0.11,1.72 ± 0.13
CCUAGC,1.6495 ± 0.00083,1.82 ± 0.056
CCUAGG,1.79 ± 0.045,1.84 ± 0.13
CCUAGA,1.585 ± 0.0086,1.79 ± 0.074
CCUAGU,1.72 ± 0.02,1.85 ± 0.11
GCUCGC,1.82 ± 0.042,1.87 ± 0.097
GCUCGG,1.78 ± 0.018,1.88 ± 0.052
GCUCGA,1.57 ± 0.04,1.73 ± 0.099
ACUUAU,1.55 ± 0.042,1.73 ± 0.074
ACUUAC,1.7124 ± 0.0011,1.84 ± 0.096
ACUUAA,1.49 ± 0.085,1.68 ± 0.13
CCUGAU,1.6 ± 0.021,1.78 ± 0.14
CCUGAA,1.32 ± 0.099,1.61 ± 0.077
CCUGAG,1.55 ± 0.077,1.76 ± 0.15
CCUGAC,1.649 ± 0.011,1.78 ± 0.11
GCGUGG,1.71 ± 0.051,1.78 ± 0.14

# From the supplement of paper PMC6757056
